Test results published in patent publication US20020086331.

Molecular target: T1, Nit domain of C. elegans NitFhit, O76463
T1 chain: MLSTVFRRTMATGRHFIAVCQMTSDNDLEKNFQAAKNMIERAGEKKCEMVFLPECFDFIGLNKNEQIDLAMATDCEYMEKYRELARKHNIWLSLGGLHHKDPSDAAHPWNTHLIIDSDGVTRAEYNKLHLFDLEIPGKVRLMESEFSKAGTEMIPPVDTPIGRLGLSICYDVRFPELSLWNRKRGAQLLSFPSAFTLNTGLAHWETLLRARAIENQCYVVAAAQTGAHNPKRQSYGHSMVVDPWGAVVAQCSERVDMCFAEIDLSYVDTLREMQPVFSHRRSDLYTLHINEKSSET

B1: Fhit domain of C. elegans NitFhit (protein)
chain: GGLKFARFNIPADHIFYSTPHSFVFVNLKPVTDGHVLVSPKRVVPRLTDLTDAETADLFIVAKKVQAMLEKHHNVTSTTICVQDGKDAGQTVPHVHIHILPRRAGDFGDNEIYQKLASHDKEPERKPRSNEQMAEEAVVYRNLM
activity of worm NitFhit on ApppBODIPY relative to human Fhit (kcat/Km): worm NitFhit displays only 22% of the activity of human Fhit on ApppBODIPY | activity of worm NitFhit on GpppBODIPY relative to human Fhit (kcat/Km): it displays 109% of the activity of human Fhit on GpppBODIPY
